From article PMC11417369, “DNA sequence and chromatin differentiate sequence-specific transcription factor binding in the human malaria parasite Plasmodium falciparum”

T1: HDP1 homeodomain-like (Plasmodium falciparum, UniProt Q8IKH4 2990-3078)
T1 sequence: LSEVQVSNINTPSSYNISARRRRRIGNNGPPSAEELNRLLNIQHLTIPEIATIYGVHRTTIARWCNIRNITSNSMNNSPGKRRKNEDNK

T2: AP2-I_D3 (AP2 domain 3) (UniProt Q8IJW6 775-824)
T2 chain: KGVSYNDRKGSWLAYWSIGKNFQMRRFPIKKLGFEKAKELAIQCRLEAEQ

T3: PF3D7_0420300 D1 (Plasmodium falciparum, UniProt Q8I1N6 1956-2015)
T3 sequence: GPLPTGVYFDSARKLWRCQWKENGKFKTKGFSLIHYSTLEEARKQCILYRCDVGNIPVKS

T4: AP2-LT D1 (Plasmodium falciparum, UniProt Q8IAM1 2520-2577)
T4 sequence: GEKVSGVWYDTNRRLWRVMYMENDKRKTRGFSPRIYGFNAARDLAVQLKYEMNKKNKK

T5: AP2-HC AP2 DBD (UniProt Q8IKR9 1320-1370)
T5 sequence: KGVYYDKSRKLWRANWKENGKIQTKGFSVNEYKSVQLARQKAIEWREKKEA

T6: AP2-HC D1 (Plasmodium falciparum, UniProt Q8IKR9 1316-1374)
T6 sequence: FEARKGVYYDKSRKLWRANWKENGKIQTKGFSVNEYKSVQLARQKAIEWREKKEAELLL

B1: GTGCAC_site10341 (dsDNA)
DNA 1: GATAAAATGAGACCAGTGCATTATTAGTTGTACACC
DNA 2: GGTGTACAACTAATAATGCACTGGTCTCATTTTATC
B2: CACACA_site7148 (dsDNA)
DNA 1: CATATTCCCCCCCACACACACACACGCATACATACC
DNA 2: GGTATGTATGCGTGTGTGTGTGTGGGGGGGAATATG
B3: CACACA_site2859 (dsDNA)
DNA 1: AAAAAAAAAAAACACACACACACACCCACCCATACA
DNA 2: TGTATGGGTGGGTGTGTGTGTGTGTTTTTTTTTTTT
B4: CACACA_negctrl_site669 (dsDNA)
DNA 1: TAACTTTTATCCTTAATTCATATATAAGATTAAATC
DNA 2: GATTTAATCTTATATATGAATTAAGGATAAAAGTTA
B5: CACACA_site2306 (dsDNA)
DNA 1: CCCCCCCACAGACACACACACATACATACCACATAT
DNA 2: ATATGTGGTATGTATGTGTGTGTGTCTGTGGGGGGG
B6: CACACA_site7194 (dsDNA)
DNA 1: CAAACAAACGAACACACACACACACGCAAAAATGAT
DNA 2: ATCATTTTTGCGTGTGTGTGTGTGTTCGTTTGTTTG
B7: CACACA_site8010 (dsDNA)
DNA 1: CACCCCCACAGACACACACACACACCGATATATATA
DNA 2: TATATATATCGGTGTGTGTGTGTGTCTGTGGGGGTG
B8: CACACA_site2428 (dsDNA)
DNA 1: TACACAAACAAACACACACACACACCCCCACAAAAA
DNA 2: TTTTTGTGGGGGTGTGTGTGTGTGTTTGTTTGTGTA
B9: CACACA_site7633 (dsDNA)
DNA 1: TGGGAATAACGACACACACACACACGGATATAAATA
DNA 2: TATTTATATCCGTGTGTGTGTGTGTCGTTATTCCCA
B10: CACACA_site6350 (dsDNA)
DNA 1: CACAAACAGACAAACACACACACACGGACATACATA
DNA 2: TATGTATGTCCGTGTGTGTGTGTTTGTCTGTTTGTG
B11: CACACA_site4184 (dsDNA)
DNA 1: TGAATAAATAAACACACACACATATATATATCTGTA
DNA 2: TACAGATATATATATGTGTGTGTGTTTATTTATTCA
B12: CACACA_site4689 (dsDNA)
DNA 1: ATAACCTAATAATACACACACATGAATATATATAAT
DNA 2: ATTATATATATTCATGTGTGTGTATTATTAGGTTAT
B13: CACACA_negctrl_site358 (dsDNA)
DNA 1: TGTTTCCAAAAAAAAAAAAAAAAAAAAAAAAAAAAA
DNA 2: TTTTTTTTTTTTTTTTTTTTTTTTTTTTTGGAAACA
B14: CACACA_negctrl_site709 (dsDNA)
DNA 1: TGAAAAAAAAAAAAAAAAAAAAGAAAAAAAAAAAAA
DNA 2: TTTTTTTTTTTTTCTTTTTTTTTTTTTTTTTTTTCA

Legend:
HDP1 homeodomain-like = molecular target: T1, HDP1 homeodomain-like; assay: gcPBM; about 25 ug protein; PBS, 1% milk, 0.2 mg/ml BSA, salmon testes DNA, 0.03% Triton X-100; conditions: tags: N-terminal GST (pGEX-4T-1), kept; chain copies: 2; label: surface-attached array probe
AP2-I_D3 (AP2 domain 3) = molecular target: T2, AP2-I_D3 (AP2 domain 3); assay: EMSA; EMSA: 1x binding buffer (listed as 100 mM Tris-HCl pH 7.5, 500 mM KCl, 10 mM DTT), 5 mM MgCl2, 25 ng/ul poly dI-dC, 0.05% NP-40, protein in 25% glycerol, 20 min room temperature, 6% PAGE 0.5x TBE; conditions: protein: recombinant; tags: N-terminal GST; label: biotin; blunt
PF3D7_0420300 D1 = molecular target: T3, PF3D7_0420300 D1; assay: gcPBM; about 25 ug protein; PBS, 1% milk, 0.2 mg/ml BSA, salmon testes DNA, 0.03% Triton X-100; conditions: tags: N-terminal GST (pGEX-4T-1), kept; label: surface-attached array probe
AP2-LT D1 = molecular target: T4, AP2-LT D1; assay: as above; conditions: tags: N-terminal GST (pGEX-4T-1), kept; label: surface-attached array probe
AP2-HC AP2 DBD = molecular target: T5, AP2-HC AP2 DBD; assay: EMSA; 1:1 stoichiometry; EMSA: 1x binding buffer (listed as 100 mM Tris-HCl pH 7.5, 500 mM KCl, 10 mM DTT), 5 mM MgCl2, 25 ng/ul poly dI-dC, 0.05% NP-40, protein in 25% glycerol, 20 min room temperature, 6% PAGE 0.5x TBE; conditions: protein: recombinant; tags: N-terminal GST; label: biotin; blunt
AP2-HC D1 = molecular target: T6, AP2-HC D1; assay: gcPBM; about 25 ug protein; PBS, 1% milk, 0.2 mg/ml BSA, salmon testes DNA, 0.03% Triton X-100; conditions: tags: N-terminal GST (pGEX-4T-1), kept; label: surface-attached array probe

Binder	binding signal (HDP1 homeodomain-like)	binding result (AP2-I_D3 (AP2 domain 3))	binding signal (PF3D7_0420300 D1)	binding signal (AP2-LT D1)	binding result (AP2-HC AP2 DBD)	binding signal (AP2-HC D1)
B1	9.81 ln median PBM intensity, better of two orientations	binds				
B2			11 ln median PBM intensity, better of two orientations	11 ln median PBM intensity, better of two orientations	binds	
B3			10.7 ln median PBM intensity, better of two orientations	10.8 ln median PBM intensity, better of two orientations		11.8 ln median PBM intensity, better of two orientations
B4			8.85 ln median PBM intensity, better of two orientations	8.63 ln median PBM intensity, better of two orientations		9.41 ln median PBM intensity, better of two orientations
B5			11 ln median PBM intensity, better of two orientations	11 ln median PBM intensity, better of two orientations		11.9 ln median PBM intensity, better of two orientations
B6			10.4 ln median PBM intensity, better of two orientations	10.8 ln median PBM intensity, better of two orientations		11.8 ln median PBM intensity, better of two orientations
B7			10.5 ln median PBM intensity, better of two orientations	10.8 ln median PBM intensity, better of two orientations		11.8 ln median PBM intensity, better of two orientations
B8			10.5 ln median PBM intensity, better of two orientations	10.7 ln median PBM intensity, better of two orientations		12.1 ln median PBM intensity, better of two orientations
B9			10.4 ln median PBM intensity, better of two orientations	10.7 ln median PBM intensity, better of two orientations		11.9 ln median PBM intensity, better of two orientations
B10				10.2 ln median PBM intensity, better of two orientations		10.6 ln median PBM intensity, better of two orientations
B11				10.1 ln median PBM intensity, better of two orientations		10.8 ln median PBM intensity, better of two orientations
B12				9.77 ln median PBM intensity, better of two orientations		10.4 ln median PBM intensity, better of two orientations
B13				8.01 ln median PBM intensity, better of two orientations		8.96 ln median PBM intensity, better of two orientations
B14				8.21 ln median PBM intensity, better of two orientations		8.7 ln median PBM intensity, better of two orientations
